According to patent publication CN114989291A (ZHEJIANG ANWEILUO DIAGNOSTIC TECH CO LTD, dated 2022):

Experiments:
Assay in all cases: cell-based or functional assay
[1] = target: SARS-CoV-2 S蛋白, 突变株 B.1.1.7 (SARS-CoV-2)
[2] = target: SARS-CoV-2 S蛋白, 突变株 B.1.525 (SARS-CoV-2)
SARS-CoV-2 S蛋白, 突变株 P.1 = SARS-CoV-2 S蛋白, 突变株 P.1 (SARS-CoV-2)
[3] = target: SARS-CoV-2 S蛋白, 突变株 B.1.617.2 (SARS-CoV-2)
[4] = target: SARS-CoV-2 S蛋白, 突变株 B.1.351 (SARS-CoV-2)

B1: 抗SARS-CoV-2全人源化单克隆抗体1B3 (antibody, V domains shown)
VH: VQLVESGGGVVQPGRSLRLSCAASGFTFSSYAMHWVRQAPGKGLEWVAVISYDGSNKYYADSVKGRFTISRDNSKNTLYLQMNSLRAEDTAVYYCAKVAGGPYYYDSSGRDWYFDLWGRGTLVTVSA
VL: DIQMTQSPSSLSASVGDRVSITCRASQSISSFLNWFQQKPGKAPNLLIYAASSLESGVPSRFSGSGSGTDFTLTISSLQPEDFATYYCQQSYSAPPTFGQGTRLEIKR
- EC50, 假病毒细胞模型中和活性 (luciferase, ACE2-293T细胞) [1]: 2.51 µg/mL
- EC50, 假病毒细胞模型中和活性 (luciferase, ACE2-293T细胞) [2]: 1.7 µg/mL
- EC50, 假病毒细胞模型中和活性 (luciferase, ACE2-293T细胞) (SARS-CoV-2 S蛋白, 突变株 P.1): 3.83 µg/mL
- EC50, 假病毒细胞模型中和活性 (luciferase, ACE2-293T细胞) [3]: 1.69 µg/mL
- EC50, 假病毒细胞模型中和活性 (luciferase, ACE2-293T细胞) [4]: 2.05 µg/mL
